Measured values published in article PMC4306973 (Scientific Reports, 2015).
Values joined by “and” are separate entries in the source; they are usually repeats but may differ in a detail not shown here. Equal entries are not always repeated.

Target: the molecule itself
Experiment: SEC

B1: vanillin dehydrogenase from Corynebacterium glutamicum ATCC13032 (VDH_(ATCC13032)) (enzyme, UniProt Q8NMB0 1-484, looked up)
chain: MTATFAGIDATKHLIGGQWVEGNSDRISTNINPYDDSVIAESKQASIADVDAAYEAAKKAQAEWAATPAAERSAIIYRAAELLEEHREEIVEWLIKESGSTRSKANLEITLAGNITKESASFPGRVHGRISPSNTPGKENRVYRVAKGVVGVISPWNFPLNLSIRSVAPALAVGNAVVIKPASDTPVTGGVIPARIFEEAGVPAGVISTVAGAGSEIGDHFVTHAVPKLISFTGSTPVGRRVGELAINGGPMKTVALELGGNAPFVVLADADIDAAAQAAAVGAFLHQGQICMSINRVIVDAAVHDEFLEKFVEAVKNIPTGDPSAEGTLVGPVINDSQLSGLKEKIELAKKEGATVQVEGPIEGRLVHPHVFSDVTSDMEIAREEIFGPLISVLKADDEAHAAELANASDFGLSAAVWSKDIDRAAQFALQIDSGMVHINDLTVNDEPHVMFGGSKNSGLGRFNGDWAIEEFTTDRWIGIKRS
stoichiometry N: 4 and 3 and 2
